In US20250326818A1 (UNIVERSIT T BASEL, published 2025):

Target: T1, CD123 ECD S59P (human, UniProt P26951 19-305)
T1 construct: Recombinant ECD
T1 sequence: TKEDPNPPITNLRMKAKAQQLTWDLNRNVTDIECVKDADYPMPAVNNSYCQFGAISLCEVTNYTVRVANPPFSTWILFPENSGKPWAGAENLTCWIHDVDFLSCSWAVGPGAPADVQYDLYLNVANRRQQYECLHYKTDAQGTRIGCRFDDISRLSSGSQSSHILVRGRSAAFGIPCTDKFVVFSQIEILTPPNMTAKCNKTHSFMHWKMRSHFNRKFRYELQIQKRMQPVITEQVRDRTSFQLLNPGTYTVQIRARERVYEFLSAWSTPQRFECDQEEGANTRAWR
Assay: BLI (Octet), biotinylated CD123 ECD captured on streptavidin tips, hIL3 as analyte, level at 250 s normalised to loading
Experimental: Binding of hIL3 (SinoBiological, PN: 11858-H08H) (analyte) to CD123 ECD wt. and variants (ligands) was performed using Streptavidin capture biosensor (SA) (Sartorius, PN: 18-5019). CD123 ECD wt. and variants were biotinylated using Biotinylation kit Type B (Abeam, PN: ab201796) following manufacturer instructions. Biotinylated CD123 ECD wt. and variants (ligands) were captured on SA tips for 1000 s to achieve a nm shift of 1.5 to 2 nm. Analyte hIL3 was titrated at 7 concentrations from 500 to 7.8 nM. Association to analyte was monitored for 300 s and dissociation for 120 s. Buffer only well was used as reference. No regeneration was performed, and a new set of tips was used for each biotinylated captured ligand. Data were analyzed using the Octet Data Analysis software HT 12.0. Due to the fast on/off nature of the interaction data were analyzed using Steady state analysis. Qualitative representation in FIG. 11 binding level were taken at 250 s association for all concentrations.

binding result: binds
B1: hIL3 (ligand, human, UniProt P08700 20-152, looked up)
chain: APMTQTTPLKTSWVNCSNMIDEIITHLKQPPLPLLDFNNLNGEDQDILMENNLRRPNLEAFNRAVKSLQNASAIESILKNLLPCLPLATAAPTRHPIHIKDGDWNEFRRKLTFYLKTLENAQAQQTTLSLAIF
notes: also called Interleukin-3
